Results: paper PMC5042399

Experiments:
[1] = biological target: DNA topoisomerase IIα (TOP2A), recombinant (UniProt P11388)
[2] = biological target: DNA topoisomerase I (TOP1), full-length recombinant (UniProt P11387)
Chain of UniProt P11387 (P11387 whole entry): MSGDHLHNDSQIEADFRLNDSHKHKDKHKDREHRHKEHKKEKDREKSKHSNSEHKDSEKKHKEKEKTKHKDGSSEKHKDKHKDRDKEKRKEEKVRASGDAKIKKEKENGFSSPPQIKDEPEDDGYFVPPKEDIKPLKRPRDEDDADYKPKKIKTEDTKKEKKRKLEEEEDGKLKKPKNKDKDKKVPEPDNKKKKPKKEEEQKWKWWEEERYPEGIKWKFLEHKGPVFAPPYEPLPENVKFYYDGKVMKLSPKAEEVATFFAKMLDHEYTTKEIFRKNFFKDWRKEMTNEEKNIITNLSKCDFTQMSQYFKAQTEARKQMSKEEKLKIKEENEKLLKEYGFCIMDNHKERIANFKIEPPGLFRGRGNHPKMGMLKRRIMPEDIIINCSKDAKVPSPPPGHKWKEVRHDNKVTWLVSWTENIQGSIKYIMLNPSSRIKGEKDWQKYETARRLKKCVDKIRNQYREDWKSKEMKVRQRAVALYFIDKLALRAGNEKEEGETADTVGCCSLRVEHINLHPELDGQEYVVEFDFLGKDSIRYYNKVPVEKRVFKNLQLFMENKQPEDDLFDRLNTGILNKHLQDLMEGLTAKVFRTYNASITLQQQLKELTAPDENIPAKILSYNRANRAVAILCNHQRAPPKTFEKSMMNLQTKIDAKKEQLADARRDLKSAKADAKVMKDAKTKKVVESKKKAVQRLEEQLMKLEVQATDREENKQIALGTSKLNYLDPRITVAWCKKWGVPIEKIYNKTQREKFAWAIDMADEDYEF

Chain of UniProt P11388 (P11388 whole entry): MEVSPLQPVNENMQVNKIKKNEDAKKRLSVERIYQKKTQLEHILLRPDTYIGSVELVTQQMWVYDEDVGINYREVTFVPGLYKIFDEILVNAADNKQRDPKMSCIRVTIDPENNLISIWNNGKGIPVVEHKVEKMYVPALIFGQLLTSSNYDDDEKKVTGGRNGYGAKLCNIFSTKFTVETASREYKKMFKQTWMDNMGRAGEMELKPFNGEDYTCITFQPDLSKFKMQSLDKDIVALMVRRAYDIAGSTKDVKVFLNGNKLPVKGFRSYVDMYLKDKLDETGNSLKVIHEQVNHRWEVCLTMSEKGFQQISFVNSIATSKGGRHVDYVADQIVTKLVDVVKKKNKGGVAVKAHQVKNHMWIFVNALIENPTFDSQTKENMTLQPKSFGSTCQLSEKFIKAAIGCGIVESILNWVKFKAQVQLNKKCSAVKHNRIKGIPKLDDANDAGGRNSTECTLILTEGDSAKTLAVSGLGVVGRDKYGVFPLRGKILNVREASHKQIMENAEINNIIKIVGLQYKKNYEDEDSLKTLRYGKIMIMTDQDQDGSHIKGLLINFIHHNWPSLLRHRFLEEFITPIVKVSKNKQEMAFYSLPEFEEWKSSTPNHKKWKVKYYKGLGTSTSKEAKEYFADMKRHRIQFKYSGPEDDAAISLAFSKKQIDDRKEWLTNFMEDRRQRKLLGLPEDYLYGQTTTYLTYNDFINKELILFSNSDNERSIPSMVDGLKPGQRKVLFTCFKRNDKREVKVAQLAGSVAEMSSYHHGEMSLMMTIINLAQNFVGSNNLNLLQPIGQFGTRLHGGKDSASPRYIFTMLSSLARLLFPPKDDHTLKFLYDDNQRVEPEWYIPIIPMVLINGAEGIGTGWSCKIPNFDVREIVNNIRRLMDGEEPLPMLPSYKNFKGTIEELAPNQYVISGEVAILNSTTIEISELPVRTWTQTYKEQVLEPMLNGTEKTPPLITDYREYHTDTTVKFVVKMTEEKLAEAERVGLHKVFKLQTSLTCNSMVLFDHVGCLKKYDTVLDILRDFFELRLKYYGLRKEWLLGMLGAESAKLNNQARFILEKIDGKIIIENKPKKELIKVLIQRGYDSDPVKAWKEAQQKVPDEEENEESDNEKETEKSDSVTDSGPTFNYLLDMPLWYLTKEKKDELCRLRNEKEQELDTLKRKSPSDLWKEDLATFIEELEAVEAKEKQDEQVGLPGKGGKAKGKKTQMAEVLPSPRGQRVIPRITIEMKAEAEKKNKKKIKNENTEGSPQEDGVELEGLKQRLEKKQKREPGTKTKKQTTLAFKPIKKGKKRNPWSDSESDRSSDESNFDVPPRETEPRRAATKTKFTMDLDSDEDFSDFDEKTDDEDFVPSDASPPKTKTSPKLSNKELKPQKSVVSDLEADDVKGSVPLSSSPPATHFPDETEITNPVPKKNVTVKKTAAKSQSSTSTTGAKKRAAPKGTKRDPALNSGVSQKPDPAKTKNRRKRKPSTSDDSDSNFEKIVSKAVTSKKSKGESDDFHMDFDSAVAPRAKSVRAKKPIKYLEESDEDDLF

stimulation of BLM unwinding of dsDNA substrate by 7 nM TOP2A (fold change relative to minus TOP2A) [1] [fold] | stimulation of BLM unwinding of RNA:DNA substrate by a two-fold molar excess of TOP1 (specific activity with against without TOP1) [2] [fold] | Substance
3 | – | BLM-Δ1332–1349, recombinant (from UniProt P54132 1-1417) (enzyme)
– | 1.5 | BLM wild-type (WT), recombinant (from UniProt P54132 1-1417) (enzyme)
